Changes are numbered by the printed parent chain. In names and notes the source's numbering stands. Where no end group is shown, it is not given here. The star is where a group is joined. FA1 = tetradecanamide (myristoyl) lipid attached through an ethoxy-ethoxy-ethyl acetamide linker, made from Br-FA1, N-(2-(2-(2-(2-bromoacetamido)ethoxy)ethoxy)ethyl)tetradecanamide, CCCCCCCCCCCCCC(=O)NCCOCCOCCNC(=O)C*; FA2 = not defined here; FA3 = not defined here
B1: Relaxin-B-D1AM25KM4K, A-Q1AH12K, B-S29C-FA3 (ligand)
chain 1: ASWKEEVIKLCGRELVRAQIAICGKSTWC(FA3)
chain 2: ALYSALANKCCKVGCTKRSLARFC
modifications: ends and bridges not checked; also: A and B chains disulfide-linked, pairing not given here
B2: Tev-Relaxin-C chain (ligand)
chain: HHHHHHHHENLYFQGSGGDSWMEEVIKLCGRELVRAQIAICGMSTWSKRSLSQEDAPQTPRPVAEIVPSFINKDTETINMMSEFVANLPQELKLTLSEMQPALPQLQQHVPVLKDSSLLFEEFKKLIRNRQSEAADSSPSELKYLGLDTHSRKKRQLYSALANKCCHVGCTKRSLARFC
B3: Tev-Relaxin-B-S29C-FA1-C-Chain (ligand)
chain: B2 chain with S47C
modifications: lipid FA1 on the Cys at B-chain position 29 (from Br-FA1, Example 5)
B4: Tev-Relaxin-single-chain (ligand)
chain: HHHHHHHHENLYFQGSGGDSWMEEVIKLCGRELVRAQIAICGMSTWSGGGRGGRQLYSALANKCCHVGCTKRSLARFC
B5: Tev-Relaxin-B-S29C-single-chain (ligand)
chain: B4 chain with S47C
B6: Tev-Relaxin-B-S29C-FA1-single-chain (ligand)
chain: B4 chain with S47C
modifications: lipid FA1 on the Cys at B-chain position 29 (from Br-FA1, Example 5)
B7: Relaxin-B-D1A, A-R18C-FA3 (ligand)
chain 1: ASWMEEVIKLCGRELVRAQIAICGMSTWS
chain 2: QLYSALANKCCHVGCTKC(FA3)SLARFC
modifications: ends and bridges not checked; also: A and B chains disulfide-linked, pairing not given here
B8: Relaxin-B-D1A, A-R18C-FA1 (ligand)
chain 1: ASWMEEVIKLCGRELVRAQIAICGMSTWS
chain 2: QLYSALANKCCHVGCTKC(FA1)SLARFC
modifications: ends and bridges not checked; also: A and B chains disulfide-linked, pairing not given here
B9: Tev-Relaxin (ligand)
chain 1: HHHHHHHHENLYFQSGGDSWMEEVIKLCGRELVRAQIAICGMSTWS
chain 2: QLYSALANKCCHVGCTKRSLARFC
B10: Relaxin-B-D1AM25KS29C-FA2 (ligand)
chain 1: ASWMEEVIKLCGRELVRAQIAICGKSTWC
chain 2: QLYSALANKCCHVGCTKRSLARFC
modifications: ends and bridges not checked; also: lipid conjugate FA2, site not given here
B11: Relaxin-B-D1A, A-Q1C-FA2 (ligand)
chain 1: ASWMEEVIKLCGRELVRAQIAICGMSTWS
chain 2: C(FA2)LYSALANKCCHVGCTKRSLARFC
modifications: ends and bridges not checked; also: A and B chains disulfide-linked, pairing not given here
B12: Relaxin-B-D1AM25KM4K, A-Q1AH12K, B-S29C-FA1 (ligand)
chain 1: ASWKEEVIKLCGRELVRAQIAICGKSTWC(FA1)
chain 2: ALYSALANKCCKVGCTKRSLARFC
modifications: ends and bridges not checked; also: A and B chains disulfide-linked, pairing not given here
B13: Pro-Relaxin-B-D1A (ligand)
chain: MIEEGRDSWMEEVIKLCGRELVRAQIAICGMSTWSKRKPTGYGSRKKRQLYSALANKCCHVGCTKRSLARFC
B14: Relaxin-B-D1A, A-A5C-FA3 (ligand)
chain 1: ASWMEEVIKLCGRELVRAQIAICGMSTWS
chain 2: QLYSC(FA3)LANKCCHVGCTKRSLARFC
modifications: ends and bridges not checked; also: A and B chains disulfide-linked, pairing not given here
B15: Relaxin-B-D1AM25KM4K, A-Q1AH12K, B-S29C-FA2 (ligand)
chain 1: ASWKEEVIKLCGRELVRAQIAICGKSTWC(FA2)
chain 2: ALYSALANKCCKVGCTKRSLARFC
modifications: ends and bridges not checked; also: A and B chains disulfide-linked, pairing not given here
B16: Relaxin-B-D1A (ligand)
chain 1: ASWMEEVIKLCGRELVRAQIAICGMSTWS
chain 2: QLYSALANKCCHVGCTKRSLARFC
modifications: ends and bridges not checked; cysteine pairing not given here
B17: Relaxin-B-D1A, A-A5C-FA2 (ligand)
chain 1: ASWMEEVIKLCGRELVRAQIAICGMSTWS
chain 2: QLYSC(FA2)LANKCCHVGCTKRSLARFC
modifications: ends and bridges not checked; also: A and B chains disulfide-linked, pairing not given here
B18: Relaxin-B-D1AS29C-XTEN288 (ligand)
chain 1: ASWMEEVIKLCGRELVRAQIAICGMSTWC
chain 2: QLYSALANKCCHVGCTKRSLARFC
chain 3: SAGSPTGPGSEPATSGSETPGTSESATPESGPGSEPATSGSETPGTSESATPESGPGTSTEPSEGSAPGSPAGSPTSTEEGTSESATPESGPGSEPATSGSETPGTSESATPESGPGSPAGSPTSTEEGSPAGSPTSTEEGTSTEPSEGSAPGTSESATPESGPGTSESATPESGPGTSESATPESGPGSEPATSGSETPGSEPATSGSETPGSPAGSPTSTEEGTSTEPSEGSAPGTSTEPSEGSAPGSEPATSGSETPGTSESATPESGPGTSTEPSEGSAPSASR
B19: Relaxin-B-D1A, A-Q1C-FA1 (ligand)
chain 1: ASWMEEVIKLCGRELVRAQIAICGMSTWS
chain 2: C(FA1)LYSALANKCCHVGCTKRSLARFC
modifications: ends and bridges not checked; also: A and B chains disulfide-linked, pairing not given here
B20: GSGG-Relaxin-single-chain (ligand)
chain: GSGGDSWMEEVIKLCGRELVRAQIAICGMSTWSGGGRGGRQLYSALANKCCHVGCTKRSLARFC
B21: Relaxin-B-D1AM4KS29C-FA2 (ligand)
chain 1: ASWKEEVIKLCGRELVRAQIAICGMSTWC
chain 2: QLYSALANKCCHVGCTKRSLARFC
modifications: ends and bridges not checked; also: lipid conjugate FA2, site not given here
B22: Relaxin-B-D1A, A-R18C-FA2 (ligand)
chain 1: ASWMEEVIKLCGRELVRAQIAICGMSTWS
chain 2: QLYSALANKCCHVGCTKC(FA2)SLARFC
modifications: ends and bridges not checked; also: A and B chains disulfide-linked, pairing not given here
B23: Relaxin-B-D1A, A-Q1C-FA3 (ligand)
chain 1: ASWMEEVIKLCGRELVRAQIAICGMSTWS
chain 2: C(FA3)LYSALANKCCHVGCTKRSLARFC
modifications: ends and bridges not checked; also: A and B chains disulfide-linked, pairing not given here
B24: Relaxin-A-H12K, B-D1AS29C-FA2 (ligand)
chain 1: ASWMEEVIKLCGRELVRAQIAICGMSTWC(FA2)
chain 2: QLYSALANKCCKVGCTKRSLARFC
modifications: ends and bridges not checked; also: A and B chains disulfide-linked, pairing not given here

Key:
LGR7 [1] = molecular target: T1, LGR7 (UniProt Q9HBX9 1-757, limits assumed); test: cell-based or functional assay
T1 sequence (looked up): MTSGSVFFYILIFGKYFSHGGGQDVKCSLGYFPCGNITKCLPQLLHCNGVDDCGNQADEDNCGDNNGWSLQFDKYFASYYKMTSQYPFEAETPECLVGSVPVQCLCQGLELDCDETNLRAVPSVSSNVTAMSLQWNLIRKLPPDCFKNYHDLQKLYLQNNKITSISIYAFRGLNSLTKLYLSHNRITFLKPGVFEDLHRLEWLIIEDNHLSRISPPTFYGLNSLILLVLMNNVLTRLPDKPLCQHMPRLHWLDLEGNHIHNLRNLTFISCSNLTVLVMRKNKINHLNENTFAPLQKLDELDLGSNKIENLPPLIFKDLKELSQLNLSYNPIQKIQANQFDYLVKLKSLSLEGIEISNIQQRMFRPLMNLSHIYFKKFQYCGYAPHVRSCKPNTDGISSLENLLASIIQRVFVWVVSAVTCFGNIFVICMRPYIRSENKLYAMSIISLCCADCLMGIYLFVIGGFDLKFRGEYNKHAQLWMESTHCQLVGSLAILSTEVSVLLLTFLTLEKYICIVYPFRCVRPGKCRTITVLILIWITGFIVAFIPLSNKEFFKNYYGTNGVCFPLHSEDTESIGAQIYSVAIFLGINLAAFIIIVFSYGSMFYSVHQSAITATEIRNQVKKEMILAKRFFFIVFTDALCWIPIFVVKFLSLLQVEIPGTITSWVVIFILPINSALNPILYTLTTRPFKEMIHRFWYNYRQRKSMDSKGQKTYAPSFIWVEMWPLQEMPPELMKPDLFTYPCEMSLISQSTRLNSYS

LGR7 [2] = molecular target: T1, LGR7; test: cell-based or functional assay; remark: listed apart in the source

| Binder | Activity, fold drop compared to relaxin (LGR7 [1]) [fold] | Activity (LGR7 [2]) [nM] |
| --- | --- | --- |
| B1 | 150 |  |
| B2 |  | 6 |
| B3 |  | 21 |
| B4 |  | 14 |
| B5 |  | 11 |
| B6 |  | 29 |
| B7 | 30 |  |
| B8 | 15 |  |
| B9 |  | 2 |
| B10 | 48 |  |
| B11 | 15 |  |
| B12 | 25 |  |
| B13 | 10 |  |
| B14 | 15 |  |
| B15 | 150 |  |
| B16 | 0 |  |
| B17 | 25 |  |
| B18 | 20 |  |
| B19 | 10 |  |
| B20 |  | 1 |
| B21 | 40 |  |
| B22 | 30 |  |
| B23 | 25 |  |
| B24 | 16 |  |

Source: patent publication US20160287713A1 (CALIFORNIA INSTITUTE FOR BIOMEDICAL RESEARCH, published 2016)
